Assay [1] has as its target cyclin E-cdk2 (baculovirally coexpressed cyclin E and cdk2-HA).
Assay [2] addresses cyclin A-cdk2 (baculovirally coexpressed cyclin A and cdk2-HA).

On to “flag-p57 (mouse p57^KIP2 tagged at the N-terminus with the flag epitope)”, for which the half-maximal inhibition of histone H1 kinase activity in assay [1] and in assay [2] was 0.5 nM each time.

Source of the values: patent publication US6025480.
